Like-named read-outs stand apart in the source and are kept apart here.
B1: RRBP1 (protein, UniProt Q9P2E9 1-1410, looked up)
Ribosome-binding protein 1: MDIYDTQTLGVVVFGGFMVVSAIGIFLVSTFSMKETSYEEALANQRKEMAKTHHQKVEKKKKEKTVEKKGKTKKKEEKPNGKIPDHDPAPNVTVLLREPVRAPAVAVAPTPVQPPIIVAPVATVPAMPQEKLASSPKDKKKKEKKVAKVEPAVSSVVNSIQVLTSKAAILETAPKEVPMVVVPPVGAKGNTPATGTTQGKKAEGTQNQSKKAEGAPNQGRKAEGTPNQGKKTEGTPNQGKKAEGTPNQGKKAEGTPNQGKKAEGAQNQGKKVDTTPNQGKKVEGAPTQGRKAEGAQNQAKKVEGAQNQGKKAEGAQNQGKKGEGAQNQGKKAEGAQNQGKKAEGAQNQGKKAEGAQNQGKKAEGAQNQGKKAEGAQNQGKKAEGAQNQGKKVEGAQNQGKKAEGAQNQGKKAEGAQNQGKKAEGAQNQGKKAEGAQNQGKKAEGAQNQGKKAEGAQNQGKKAEGAQNQGKKVEGAQNQGKKAEGAQNQGKKAEGAQNQGKKAEGAQNQGQKGEGAQNQGKKTEGAQGKKAERSPNQGKKGEGAPIQGKKADSVANQGTKVEGITNQGKKAEGSPSEGKKAEGSPNQGKKADAAANQGKKTESASVQGRNTDVAQSPEAPKQEAPAKKKSGSKKKGEPGPPDADGPLYLPYKTLVSTVGSMVFNEGEAQRLIEILSEKAGIIQDTWHKATQKGDPVAILKRQLEEKEKLLATEQEDAAVAKSKLRELNKEMAAEKAKAAAGEAKVKKQLVAREQEITAVQARMQASYREHVKEVQQLQGKIRTLQEQLENGPNTQLARLQQENSILRDALNQATSQVESKQNAELAKLRQELSKVSKELVEKSEAVRQDEQQRKALEAKAAAFEKQVLQLQASHRESEEALQKRLDEVSRELCHTQSSHASLRADAEKAQEQQQQMAELHSKLQSSEAEVRSKCEELSGLHGQLQEARAENSQLTERIRSIEALLEAGQARDAQDVQASQAEADQQQTRLKELESQVSGLEKEAIELREAVEQQKVKNNDLREKNWKAMEALATAEQACKEKLLSLTQAKEESEKQLCLIEAQTMEALLALLPELSVLAQQNYTEWLQDLKEKGPTLLKHPPAPAEPSSDLASKLREAEETQSTLQAECDQYRSILAETEGMLRDLQKSVEEEEQVWRAKVGAAEEELQKSRVTVKHLEEIVEKLKGELESSDQVREHTSHLEAELEKHMAAASAECQNYAKEVAGLRQLLLESQSQLDAAKSEAQKQSDELALVRQQLSEMKSHVEDGDIAGAPASSPEAPPAEQDPVQLKTQLEWTEAILEDEQTQRQKLTAEFEEAQTSACRLQEELEKLRTAGPLESSETEEASQLKERLEKEKKLTSDLGRAATRLQELLKTTQEQLAREKDTVKKLQEQLEKAEDGSSSKEGTSV
B2: SORBS3 (protein, UniProt O60504 1-671, looked up)
Vinexin: MQGPPRSLRAGLSLDDFIPGHLQSHIGSSSRGTRVPVIRNGGSNTLNFQFHDPAPRTVCNGGYTPRRDASQHPDPAWYQTWPGPGSKPSASTKIPASQHTQNWSATWTKDSKRRDKRWVKYEGIGPVDESGMPIAPRSSVDRPRDWYRRMFQQIHRKMPDLQLDWTFEEPPRDPRHLGAQQRPAHRPGPATSSSGRSWDHSEELPRSTFNYRPGAFSTVLQPSNQVLRRREKVDNVWTEESWNQFLQELETGQRPKKPLVDDPGEKPSQPIEVLLERELAELSAELDKDLRAIETRLPSPKSSPAPRRAPEQRPPAGPASAWSSSYPHAPYLGSARSLSPHKMADGGSPFLGRRDFVYPSSTRDPSASNGGGSPARREEKKRKAARLKFDFQAQSPKELTLQKGDIVYIHKEVDKNWLEGEHHGRLGIFPANYVEVLPADEIPKPIKPPTYQVLEYGEAVAQYTFKGDLEVELSFRKGEHICLIRKVNENWYEGRITGTGRQGIFPASYVQVSREPRLRLCDDGPQLPTSPRLTAAARSARHPSSPSALRSPADPIDLGGQTSPRRTGFSFPTQEPRPQTQNLGTPGPALSHSRGPSHPLDLGTSSPNTSQIHWTPYRAMYQYRPQNEDELELREGDRVDVMQQCDDGWFVGVSRRTQKFGTFPGNYVAPV
B3: PARVG (protein, UniProt Q9HBI0 1-331, looked up)
Gamma-parvin: MEPEFLYDLLQLPKGVEPPAEEELSKGGKKKYLPPTSRKDPKFEELQKVLMEWINATLLPEHIVVRSLEEDMFDGLILHHLFQRLAALKLEAEDIALTATSQKHKLTVVLEAVNRSLQLEEWQAKWSVESIFNKDLLSTLHLLVALAKRFQPDLSLPTNVQVEVITIESTKSGLKSEKLVEQLTEYSTDKDEPPKDVFDELFKLAPEKVNAVKEAIVNFVNQKLDRLGLSVQNLDTQFADGVILLLLIGQLEGFFLHLKEFYLTPNSPAEMLHNVTLALELLKDEGLLSCPVSPEDIVNKDAKSTLRVLYGLFCKHTQKAHRDRTPHGAPN
B4: PMVK (protein, UniProt Q15126 1-192, looked up)
Phosphomevalonate kinase: MAPLGGAPRLVLLFSGKRKSGKDFVTEALQSRLGADVCAVLRLSGPLKEQYAQEHGLNFQRLLDTSTYKEAFRKDMIRWGEEKRQADPGFFCRKIVEGISQPIWLVSDTRRVSDIQWFREAYGAVTQTVRVVALEQSRQQRGWVFTPGVDDAESECGLDNFGDFDWVIENHGVEQRLEEQLENLIEFIRSRL
B5: OS9 (protein, UniProt Q13438 26-667, looked up)
Protein OS-9: GGVGSLNLEELSEMRYGIEILPLPVMGGQSQSSDVVIVSSKYKQRYECRLPAGAIHFQREREEETPAYQGPGIPELLSPMRDAPCLLKTKDWWTYEFCYGRHIQQYHMEDSEIKGEVLYLGYYQSAFDWDDETAKASKQHRLKRYHSQTYGNGSKCDLNGRPREAEVRFLCDEGAGISGDYIDRVDEPLSCSYVLTIRTPRLCPHPLLRPPPSAAPQAILCHPSLQPEEYMAYVQRQADSKQYGDKIIEELQDLGPQVWSETKSGVAPQKMAGASPTKDDSKDSDFWKMLNEPEDQAPGGEEVPAEEQDPSPEAADSASGAPNDFQNNVQVKVIRSPADLIRFIEELKGGTKKGKPNIGQEQPVDDAAEVPQREPEKERGDPERQREMEEEEDEDEDEDEDEDERQLLGEFEKELEGILLPSDRDRLRSEVKAGMERELENIIQETEKELDPDGLKKESERDRAMLALTSTLNKLIKRLEEKQSPELVKKHKKKRVVPKKPPPSPQPTEEDPEHRVRVRVTKLRLGGPNQDLTVLEMKRENPQLKQIEGLVKELLEREGLTAAGKIEIKIVRPWAEGTEEGARWLTDEDTRNLKEIFFNILVPGAEEAQKERQRQKELESNYRRVWGSPGGEGTGDLDEFDF

Tests used:
[1] = biological target: T1, HCV ORFs (Gal4-DB fusions) (Hepatitis C virus genotype 1b, UniProt Q9WMX2); format: binding, HCV genotype 1b, isolate con1; settings: human protein as prey
T1 construct: expressed in transfected cells; host or cells: Saccharomyces cerevisiae MAV203 (IMAP1) / AH109 (IMAP2)
Description: (§1) HCV ORFs were transferred from pDONR223 into bait vector (pPC97) to be expressed as Gal4-DB fusions in yeast. Two different screening methods were used (IMAP1 and IMAP2). Both for IMAP1 and IMAP2 strategies and because bait constructs sometimes self-transactivate reporter genes, SD-L-H culture medium were supplemented with 3-aminotriazole (3-AT). Appropriate concentrations of this drug were determined by growing bait strains on SD-L-H medium supplemented with increasing concentrations of 3-AT. […] For IMAP1, bait vectors were introduced in MAV203 yeast strain and both human spleen and foetal brain AD-cDNA libraries (Invitrogen) were screened by transformation as described (7). All primary positive clones (selected on SD-W-L-H+3-AT) were tested by further phenotypic assay using two additional reporter genes: LacZ (X-Gal colorimetric assay) and URA3 (growth assay on 5-FOA supplemented medium). […] AD-cDNA were PCR-amplified and inserts were sequenced to identify interactors. IMAP2 screens were performed by yeast mating, using AH109 and Y187 yeast strains (Clontech (8)). Bait vectors were transformed into AH109 (bait strain) and human spleen and foetal brain AD-cDNA libraries (Invitrogen) were transformed into Y187 (prey strain). Single bait strains were mated with prey strains then diploids were plated on SD-W-L-H+3-AT medium. Positive clones were maintained onto this selective medium for 15 days to eliminate any contaminant AD-cDNA plasmid (9). AD-cDNAs were PCR amplified and inserts were sequenced.
(§2) We have developed a bioinformatic pipeline that assigns each IST to its native human genome transcript. […] Gal4 motif was searched (last 87 bases of GAL4-AD), sequences downstream of this motif were translated into peptides and aligned using BLASTP against the REFSEQ (http://www.ncbi.nlm.nih.gov/RefSeq/) human protein sequence database (release 04/2007). Low-confidence alignments (E value>10^−10, identity <80%) and premature STOP codon containing sequences were eliminated. Only in-frame proteins and high quality sequences were further considered

[2] = test system: HCV ORFs (Gal4-DB fusions); format: binding, HCV genotype 1b, isolate con1; settings: human protein listed by gene symbol; the value names the HCV protein it interacts with
Description: as §1, §2
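Further: yeast two-hybrid screens using HCV genotype 1b proteins fused to Gal4-DB as baits against prey cDNA libraries from human spleen and foetal brain, IMAP1 via transformation and IMAP2 via mating.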

Row | Molecule | IMAP Y2H IMAP2 (number of IST) ([1]; HCV protein NS5A as bait) | Interaction with viral protein [2] | IMAP Y2H IMAP2 (number of IST) ([1]; HCV protein NS5B as bait)
1 | B1 | 2 | NS5A | 
2 | B2 | 1 | NS5A | 
3 | B3 | 1 | NS5A | 
4 | B4 | 1 | NS5A | 
5 | B5 |  | NS5A | 3
